Experimental data reported in article PMC7540724.

Target: Thermus thermophilus RodA (FLAG-3C-RodA) (Thermus thermophilus) (UniProt Q5SIX3)
Experiment: crystal structure

For “Thermus thermophilus PBP2 (PBP2-3C-PrtC) (enzyme)”, the stoichiometry N (PBP2 per RodA) was 1.
